The subject of this data set is E. necator. Description: Leaf disc assay, dry inoculum (settling tower), decrease in disease severity / hyphal growth (Example 2). The following applies: decrease in disease severity (hyphal growth) relative to untreated control, value ± SE; for % decrease =/− SE TP1: time point 1 (untreated control hyphal growth ≥50%); for % decrease =/− SE TP2: time point 2.

B1: GS3446 (nucleic acid)
sense: ACCCGCAGGUACUCUUAUGCUUGGAGCUGAAGGUAUUAAAGAUGCCAUAACUGGCUUCGAAGAUGCUCGUAAAGUAGAUUUAAAGAAUGAAAGAUUGCCUCCAAGUCUUGAGGAAAUUACACGAACAAGUGAAGAGGAUAGAGCUCUGGCAUUAGAGAGGGCUAAGGAAAGUGCGGAUAAUGAUCGAGGGCUUCAGAUUUUAUCUAGAAGACUCAGUUUAGUUGGCACUCAACCAAAUAGACCGCAACCGAGUAAAAUUCUGAACUCUGUUCUAGCCCUCGAUAAAGAUGUUUCUGAGAAAUAAGAGGUCGAUCAGAGUCACCUCCUGUUACAAGCUCAUUGGUUGGUCUGCAGGUACAGAAUUACUAAUCAUACCACGA
antisense: UCGUGGUAUGAUUAGUAAUUCUGUACCUGCAGACCAACCAAUGAGCUUGUAACAGGAGGUGACUCUGAUCGACCUCUUAUUUCUCAGAAACAUCUUUAUCGAGGGCUAGAACAGAGUUCAGAAUUUUACUCGGUUGCGGUCUAUUUGGUUGAGUGCCAACUAAACUGAGUCUUCUAGAUAAAAUCUGAAGCCCUCGAUCAUUAUCCGCACUUUCCUUAGCCCUCUCUAAUGCCAGAGCUCUAUCCUCUUCACUUGUUCGUGUAAUUUCCUCAAGACUUGGAGGCAAUCUUUCAUUCUUUAAAUCUACUUUACGAGCAUCUUCGAAGCCAGUUAUGGCAUCUUUAAUACCUUCAGCUCCAAGCAUAAGAGUACCUGCGGGU
For the molecule B1, the “% decrease =/− SE TP1” value is 36 ± 3%.

B2: GS3448 (nucleic acid)
sense: GAAGAUACAAAUUUAUGCGCUAUUCAUGCUAAACGUGUUACUAUAAUGCAAAAAGACAUUCAGCUUGCAAGGCGAAUCAGAGGGGUUUGGGGUGGUUUAGGCUAGCUUUUUUAUUCUAAAUAUACCAGUGCCCGAAUUUGAUCUCCCUAAGCCACACCAUCGAGUUGAAAUGAUGAGAGGAAGAUGACGAGAAUAAAAUUAUUGUGAAUAUUCGUUAUAUGGAUAAGCGUAGAGGGGAUCUAAUACUUGUGAAUUGGUAAUCUUGAGUUAUCACUUUUUCUGGCGCAUCCAGCGACCCUAAGCAUAUGGACACUAGUGAUUGCGUCUUAGGGUUAUAGUAGCCAAGAGGAAUUUGAAGCACACAUAUUAGCACAGCAUAAUAAUAAAUAA
antisense: UUAUUUAUUAUUAUGCUGUGCUAAUAUGUGUGCUUCAAAUUCCUCUUGGCUACUAUAACCCUAAGACGCAAUCACUAGUGUCCAUAUGCUUAGGGUCGCUGGAUGCGCCAGAAAAAGUGAUAACUCAAGAUUACCAAUUCACAAGUAUUAGAUCCCCUCUACGCUUAUCCAUAUAACGAAUAUUCACAAUAAUUUUAUUCUCGUCAUCUUCCUCUCAUCAUUUCAACUCGAUGGUGUGGCUUAGGGAGAUCAAAUUCGGGCACUGGUAUAUUUAGAAUAAAAAAGCUAGCCUAAACCACCCCAAACCCCUCUGAUUCGCCUUGCAAGCUGAAUGUCUUUUUGCAUUAUAGUAACACGUUUAGCAUGAAUAGCGCAUAAAUUUGUAUCUUC
As for B2, the “% decrease =/− SE TP1” value amounted to 19 ± 3%.

B3: GS3447 (nucleic acid)
sense: CAACAGCUUGAAUUGCACGGAAUUAUCACUAUCAUCCCGACUAAGCCUCUCAAAAAGCAAAAUUUAUUUGCUAGCUCGGAAAAGAUAACAGCUAGCUACGCAAAAGCUAUUCAAGAUGGUUGUUGGCAUUCAUUUUCGCCAAACUCUCAGAAAAGCUGCAACAAAUCCCCGUCAUAUAGAAAACAACUCUAAUCAGCCAGAAACUAUGUUGUCCGGAGAAAAUAUUGGGUUACUUACGGGGCGAACAUCAAACGCCCGCAAAAGUGCGUGGCGACAAAUUUACGAUGUACUCGGAAGCAAACAUUAUUCAGCCGGAAAAGAUAGUGAUAGUAAAAUUGUACGAGCUAUAGCGCCAACUAUUCAGAUUACAAAAAUUACGUUAUACAGUAAUUAUGUC
antisense: GACAUAAUUACUGUAUAACGUAAUUUUUGUAAUCUGAAUAGUUGGCGCUAUAGCUCGUACAAUUUUACUAUCACUAUCUUUUCCGGCUGAAUAAUGUUUGCUUCCGAGUACAUCGUAAAUUUGUCGCCACGCACUUUUGCGGGCGUUUGAUGUUCGCCCCGUAAGUAACCCAAUAUUUUCUCCGGACAACAUAGUUUCUGGCUGAUUAGAGUUGUUUUCUAUAUGACGGGGAUUUGUUGCAGCUUUUCUGAGAGUUUGGCGAAAAUGAAUGCCAACAACCAUCUUGAAUAGCUUUUGCGUAGCUAGCUGUUAUCUUUUCCGAGCUAGCAAAUAAAUUUUGCUUUUUGAGAGGCUUAGUCGGGAUGAUAGUGAUAAUUCCGUGCAAUUCAAGCUGUUG
Turning to B3, the “% decrease =/− SE TP1” value is 35 ± 3%.

B4: GS3445 (nucleic acid)
sense: GAAGACCAAGCUAGAGCGAGUACAAAAACAUCCCGCAACAUAUCAAUGUCAUCUUUGCCCCAAAAAAUUUACUCGCGCCUAUAAUCUUCGCUCCCAUCUCCGAACGCAUACAAACGAGCGACCUUUUAUCUGUUCCAAGUGCACAAAAGCUUUUGCGCGUCAGCAUGAUCGAAAACGACAUGAGAGCCUACAUUCAGGUGAAAAAAGAUUUAUUUGUAGAGGAGAACUUAAAAAUGGUGGUCAUUGGGGCUGUGGCCGUCCCUUUGCUCGUGCAGAUGCCUUAAAUCGACAUUUCCGAUCGGAAGCAGGCCGAGCUUGCAUAAAUCCACUCAUAGAGGAAGACGAAUCUGAAAAUCUACGGCUAUGGAAUGAGAAACAAAUUCAAAAUAUUAAACAAA
antisense: UUUGUUUAAUAUUUUGAAUUUGUUUCUCAUUCCAUAGCCGUAGAUUUUCAGAUUCGUCUUCCUCUAUGAGUGGAUUUAUGCAAGCUCGGCCUGCUUCCGAUCGGAAAUGUCGAUUUAAGGCAUCUGCACGAGCAAAGGGACGGCCACAGCCCCAAUGACCACCAUUUUUAAGUUCUCCUCUACAAAUAAAUCUUUUUUCACCUGAAUGUAGGCUCUCAUGUCGUUUUCGAUCAUGCUGACGCGCAAAAGCUUUUGUGCACUUGGAACAGAUAAAAGGUCGCUCGUUUGUAUGCGUUCGGAGAUGGGAGCGAAGAUUAUAGGCGCGAGUAAAUUUUUUGGGGCAAAGAUGACAUUGAUAUGUUGCGGGAUGUUUUUGUACUCGCUCUAGCUUGGUCUUC
As for B4, the “% decrease =/− SE TP1” value is listed as 14 ± 9% and the “% decrease =/− SE TP2” value is on record as 16 ± 10%.

B5: GS3362 (nucleic acid)
sense: UACCCGUCUGCAACAGGUACAGGUGGUUACGCAUCGCCAACAGGGACCAGUUACCCUACACCUACUGGAGGUUACUCUGAAGAGCCCUACCACUAUAAAGGUGUCAAGCUAGGUCAUUGAGAGGAUUGAGUUACGAAAUUUGAUUGCAGCCACGCCUUCGACUUCAACCGAGAAGAGUUCCAAUCUCCCUCUUAGACGCAGGACUACUCUCACGAUACUUCUGUCUCUACUUCUUCUCAUGAGCACGCUAAUACUCUCUAAGCCUCCGUUGAUGUGUUGAAAGACAGGCACCUCAGUUUUGAUUCUAUUCAGCUCGGCAAACAUGUUGUGUACAUUCAUAGACUGAAUUUCUUUUUUAUUAUUUUUUUCCAAAUACACUCUUCCUGGAAAAAGAAGCCCU
antisense: AGGGCUUCUUUUUCCAGGAAGAGUGUAUUUGGAAAAAAAUAAUAAAAAAGAAAUUCAGUCUAUGAAUGUACACAACAUGUUUGCCGAGCUGAAUAGAAUCAAAACUGAGGUGCCUGUCUUUCAACACAUCAACGGAGGCUUAGAGAGUAUUAGCGUGCUCAUGAGAAGAAGUAGAGACAGAAGUAUCGUGAGAGUAGUCCUGCGUCUAAGAGGGAGAUUGGAACUCUUCUCGGUUGAAGUCGAAGGCGUGGCUGCAAUCAAAUUUCGUAACUCAAUCCUCUCAAUGACCUAGCUUGACACCUUUAUAGUGGUAGGGCUCUUCAGAGUAACCUCCAGUAGGUGUAGGGUAACUGGUCCCUGUUGGCGAUGCGUAACCACCUGUACCUGUUGCAGACGGGUA
In the case of B5, the “% decrease =/− SE TP1” value stood at 14 ± 4%.

B6: GS1800: dsRNA trigger SEQ ID NO 137; gene target Protein BOB1 (nucleic acid)
DNA: ATCAGTCTGACTGCTATACTCACTACCAGAGTCACTGATTACCTGTCTGTCTCTATCGACAATTCCATGAGGTGATTTTAAATGAGTGATATGTTCGTCAATGACACTTAGAGTTTCATTCATTACAGGGCTATCTTGACGATGATTCTTAATATTAACAGACGAGATACTTTTTGATTGAATCGTTGTTTCAGGACTAGTAATCGTTAAGTTTGACGGAGCCTTGATACCCCGGGGCCCAAGAGTTGGTTGTATTTGAGGAGTATCTAACATTTTGAGAGGTTCTGATGGCAAGGAGACCGTATTTTCACCAGAAAAAGGAGTTTGTGGAGAAACTGTGTTGCTAGTTTTCCTTATTTTGGAATGGGAATTTTGAATGGACGATGATGCTGGCGAGCATATTAAAGATCCTCGGGGAGCTATACGTGTGTATACTTCTGGGAAGAGGCCACTCTTTCCATTTAGCAGATGACGGCCTAAAAACCATCCGTCCCCAAAATCATCATCACGTTCTATCAACTCAACGCGATCTCCTTTGGACAAGCTCAACTCATCTGAGCTACGAGCTGAGAAATCATGAACTACAAGCAAAATATGA
B6: the “% decrease =/− SE TP1” value is 22 ± 6% and the “% decrease =/− SE TP2” value is recorded as 25 ± 8%.

B7: GS3361 (nucleic acid)
sense: AAUAAGUGUCUGGAUUGUUGAAUGGGAUUCUUUUUAGUCGAUCAAUUUCAAUUAACUCAUAACGCAGAAAUUUCUUAAAAUUGAACGAUUUAUAGGAACCGAUGUGAAAUUUUCUUCAAUCUCCAUGUCAAUCGCAGAUGUGGGCAAAAAAGAUUGGGAAGAGAAUUCUUAGUUAUAUUUCAUUUGAAUACUAUUGGGGUAAUGCAUGUCCAAAGAGUCUCGUACCAAGAGAUACCUUUAUCUGGAAAUAAUUAGAAGAUUUACCCGUCUUACCUUGAUGAAUUGUGUGUUAGAGAUACACCAUGGCUAAGAUAUUAAUAUCUAUUUAGUUUGGGAAGUUGAUGACGAUACAUCACAGUUCUCUGUAAAUUUUGUUAUUUCCUCUAAUAUCAUUAA
antisense: UUAAUGAUAUUAGAGGAAAUAACAAAAUUUACAGAGAACUGUGAUGUAUCGUCAUCAACUUCCCAAACUAAAUAGAUAUUAAUAUCUUAGCCAUGGUGUAUCUCUAACACACAAUUCAUCAAGGUAAGACGGGUAAAUCUUCUAAUUAUUUCCAGAUAAAGGUAUCUCUUGGUACGAGACUCUUUGGACAUGCAUUACCCCAAUAGUAUUCAAAUGAAAUAUAACUAAGAAUUCUCUUCCCAAUCUUUUUUGCCCACAUCUGCGAUUGACAUGGAGAUUGAAGAAAAUUUCACAUCGGUUCCUAUAAAUCGUUCAAUUUUAAGAAAUUUCUGCGUUAUGAGUUAAUUGAAAUUGAUCGACUAAAAAGAAUCCCAUUCAACAAUCCAGACACUUAUU
As to B7, the “% decrease =/− SE TP1” value came to 16 ± 3%.

These data come from patent publication US12077763B2, “RNA-based control of powdery mildew” (Greenlight Biosciences, Inc., priority 2021, dated 2024).
